Experimental data published in the Human Domainome abundance scans (Beltran et al. 2025).

B1: Gamma-crystallin C, residues 91 to 170; numbered along this chain, P07315 (parent)
chain: RLYEREDHKGLMMELSEDCPSIQDRFHLSEIRSLHVLEGCWVLYELPNYRGRQYLLRPQEYRRCQDWGAMDAKAGSLRRV

Variants of: B1
Assay: abundance fitness (aPCA) (normalised: wild type 0, dead -1); higher = more abundant; growth selection in yeast, the domain comes from the species named
Conditions: Homo sapiens

Abundance fitness of substitutions, site by site:
L34: W -0.486 | T -0.848 | M 0.027 | D -0.579 | A -0.064 | F -0.097 | G -0.725 | V -0.043 | Y -0.572 | E -0.537 | S -0.897 | Q -0.781 | C -0.161 | I 0.056
S29: A -0.161 | G -0.118 | M -0.408 | P -0.199 | K -0.013 | V -0.328 | D -0.073 | F -0.318 | L -0.165 | T -0.012 | H -0.064 | R -0.043 | Y -0.132 | N -0.003 | Q -0.086 | W -0.113 | I -0.408 | C -0.237 | E -0.112
C19: L -0.659 | R -0.886 | A -0.836 | M -0.761 | F -0.969 | T -0.535 | Y -0.712 | W -0.807 | K -0.623 | P -0.902 | E -0.369 | V -0.43 | S -0.92
H35: P -0.789 | T 0.081 | S -0.05 | L -0.15 | N -0.09 | I -0.004 | Y -0.202 | V 0.036 | D -0.107 | E 0.139 | W -0.354 | A -0.053 | G -0.845 | K -0.029 | F -0.325 | C -0.206 | M -0.222
V36: C -0.836 | M -0.742 | E -0.88 | I -0.013 | L -0.632 | Y -0.947 | Q -0.713 | R -1.08 | G -0.76 | N -0.772 | W -0.788 | S -0.969 | A -0.783
L28: N -0.697 | W 0.134 | Y -0.252 | T -0.601 | M -0.038 | Q -0.337 | E -0.451 | R -0.05 | P -0.864 | G -0.364 | V -0.035 | I 0.093 | S -0.251 | H -0.448 | K -0.022 | A -0.129 | F -0.335
P20: Y -0.996 | M -0.684 | R -0.44 | C -0.253 | L -0.613 | S -0.292 | A -0.025 | E -0.11 | V -0.345 | H 0.061 | I -0.506 | D -0.24 | G -0.394 | W -0.503 | Q -0.442 | N -0.152 | T -0.43
L37: F -0.263 | C -0.578 | S -0.372 | N -0.363 | E -0.481 | H -0.351 | T -0.326 | P -0.813 | Y -0.3 | Q -0.256 | V -0.033 | K -0.136 | M -0.158 | A -0.553 | D -0.254 | W -0.799 | I -0.062
E17: Y -0.526
R32: N -0.146 | L -0.359 | C -0.178 | F -0.683 | D -0.89 | W -0.631 | M -0.412 | H 0.009 | A -0.302 | Y -0.417 | Q -0.279 | P -0.146 | S -0.466 | K -0.018 | E -0.478 | G 0.082 | I -0.587 | V -0.808
D18: G -0.936 | T -0.805 | I -0.758 | W -0.997 | E -0.675 | Q -0.935 | C -0.676 | A -0.462 | P -0.66 | K -0.934 | V -1.01 | R -0.938 | S -0.142 | Y -0.748 | L -0.956 | F -0.955 | M -0.496
I22: M -0.562 | L -0.084 | F -0.47 | V -0.149 | A -0.784 | S -0.975 | W -0.801 | D -0.89 | C -0.61 | P -0.978 | Y -0.6 | R -0.771 | G -0.921 | T -0.649
F26: R -0.886 | Q -0.787 | I -0.553 | W -0.007 | T -0.217 | C -0.317 | M -0.049 | Y -0.461 | K -0.818 | V -0.461 | E -0.923 | S -0.69 | L -0.343 | G -0.406 | A -0.564
E38: L -0.379 | C -0.242 | N 0.102 | P -0.642 | H -0.119 | F -0.216 | S -0.015 | Q 0.171 | K -0.083 | V -0.222 | M -0.222 | G -0.186 | D 0.013 | A -0.059 | I -0.711
D24: W -0.516 | N -0.183 | K -0.256 | P -0.951 | V -0.396 | Y -0.35 | A -0.008 | C -0.274 | M -0.194 | T -0.202 | S -0.067 | Q -0.213 | H -0.087 | G -0.167 | E 0.045 | L -0.31
S21: M -0.914 | W -0.904 | L -0.761 | H -0.184 | I -0.842 | A -0.467 | N 0.053 | K -0.472 | V -0.56 | C -0.089 | Y -0.762 | E -0.554 | D -0.07 | R -0.454 | T -0.456 | G -0.613 | P -0.602
S33: V -1.01 | R -0.9 | F -0.99 | D -1.07 | M -0.673 | H -0.933 | W -0.98 | Y -0.424 | G -0.872 | Q -1.03 | I -0.492 | T -1.04 | K -0.957 | L -0.865
I31: W -0.848 | T -0.789 | S -0.665 | P -0.951 | C -0.833 | Q -0.992 | D -0.843 | N -0.912 | K -1.02 | A -0.611 | G -1.01 | E -0.987 | R -0.776
R25: A -0.086 | T -0.148 | W -0.134 | G -0.602 | P -0.736 | L -0.184 | C -0.339 | D -0.396 | V -0.025 | I -0.598 | Y -0.463 | K -0.07 | Q -0.179 | S -0.078
H27: F -0.414 | L -0.18 | V -0.602 | R -0.037 | M -0.075 | C -0.115 | K -0.137 | G 0.047 | W -0.441 | A -0.069 | E -0.119 | Q -0.034 | N 0.075 | T -0.345 | S -0.079 | I -0.739
E30: P -1.17 | H 0.019 | R -0.184 | F -0.234 | S -0.222 | N -0.116 | L -0.368 | I -0.458 | C -0.117 | G -0.273 | Y -0.145 | W -0.455 | K -0.13 | V -0.275 | T -0.186 | D -0.424 | A -0.133
Q23: W 0.003 | R -0.128 | V -0.053 | A -0.044 | K -0.043 | H -0.122 | L -0.076 | G -0.124 | C -0.187 | Y -0.17 | S -0.145 | F -0.093 | P -0.127 | D -0.276 | E 0 | N -0.016 | M -0.033 | I 0.007
G39: A -0.56 | C -0.536
